Legend:
[1] = molecular target: Cytosolic 10-formyltetrahydrofolate dehydrogenase (Homo sapiens) (UniProt O75891); assay: PIF-agarose affinity extraction of normal human liver lysate 2, LC-MS/MS
[2] = molecular target: Parathymosin (Homo sapiens) (UniProt P20962); assay: as above
[3] = molecular target: Endoplasmin (Homo sapiens) (UniProt P14625); assay: as above
[4] = molecular target: Alpha-actinin-4 (Homo sapiens) (UniProt O43707); assay: as above
[5] = molecular target: Delta-aminolevulinic acid dehydratase (Homo sapiens) (UniProt P13716); assay: as above
[6] = molecular target: Cytochrome b-c1 complex subunit 6, mitochondrial (Homo sapiens) (UniProt P07919); assay: as above
[7] = molecular target: Protein disulfide-isomerase A3 (Homo sapiens) (UniProt P30101); assay: as above
[8] = molecular target: Protein disulfide-isomerase (Homo sapiens) (UniProt P07237); assay: as above
[9] = molecular target: Protein disulfide-isomerase A4 (Homo sapiens) (UniProt P13667); assay: as above
[10] = molecular target: Tropomyosin alpha-4 chain (Homo sapiens) (UniProt P67936); assay: as above
[11] = molecular target: Alcohol dehydrogenase 1A (Homo sapiens) (UniProt P07327); assay: as above
[12] = molecular target: Hepatoma-derived growth factor (Homo sapiens) (UniProt P51858); assay: as above
[13] = molecular target: Cytosolic 10-formyltetrahydrofolate dehydrogenase (Homo sapiens) (UniProt O75891); assay: PIF-agarose affinity extraction of normal human liver lysate 1, LC-MS/MS
[14] = molecular target: Parathymosin (Homo sapiens) (UniProt P20962); assay: as above
Vimentin (Homo sapiens) = Vimentin (Homo sapiens) (UniProt P08670); assay: as above
[15] = molecular target: Endoplasmin (Homo sapiens) (UniProt P14625); assay: as above
[16] = molecular target: Cytochrome b5 (Homo sapiens) (UniProt P00167); assay: as above
[17] = molecular target: Alpha-actinin-4 (Homo sapiens) (UniProt O43707); assay: as above
[18] = molecular target: Delta-aminolevulinic acid dehydratase (Homo sapiens) (UniProt P13716); assay: as above
[19] = molecular target: Cytochrome b-c1 complex subunit 6, mitochondrial (Homo sapiens) (UniProt P07919); assay: as above
[20] = molecular target: Peroxiredoxin-1 (Homo sapiens) (UniProt Q06830); assay: as above
[21] = molecular target: Calreticulin (Homo sapiens) (UniProt P27797); assay: as above
[22] = molecular target: Protein disulfide-isomerase A3 (Homo sapiens) (UniProt P30101); assay: as above
[23] = molecular target: Protein disulfide-isomerase (Homo sapiens) (UniProt P07237); assay: as above
[24] = molecular target: Protein disulfide-isomerase A4 (Homo sapiens) (UniProt P13667); assay: as above
[25] = molecular target: Alcohol dehydrogenase 1B (Homo sapiens) (UniProt P00325); assay: as above
[26] = molecular target: Activated RNA polymerase II transcriptional coactivator p15 (Homo sapiens) (UniProt P53999); assay: as above
[27] = molecular target: Membrane-associated progesterone receptor component 1 (Homo sapiens) (UniProt O00264); assay: as above
[28] = molecular target: Transitional endoplasmic reticulum ATPase (Homo sapiens) (UniProt P55072); assay: as above
[29] = molecular target: Tropomyosin alpha-4 chain (Homo sapiens) (UniProt P67936); assay: as above
[30] = molecular target: Calmodulin (Homo sapiens) (UniProt P0DP23); assay: as above
[31] = molecular target: Alcohol dehydrogenase 4 (Homo sapiens) (UniProt P08319); assay: as above
[32] = molecular target: 14-3-3 protein epsilon (Homo sapiens) (UniProt P62258); assay: as above
[33] = molecular target: Alcohol dehydrogenase 1A (Homo sapiens) (UniProt P07327); assay: as above
[34] = molecular target: Hepatoma-derived growth factor (Homo sapiens) (UniProt P51858); assay: as above
[35] = molecular target: 78 kDa glucose-regulated protein (Homo sapiens) (UniProt P11021); assay: as above
[36] = molecular target: Enoyl-CoA hydratase domain-containing protein 2, mitochondrial (Homo sapiens) (UniProt Q86YB7); assay: as above

Chain of Delta-aminolevulinic acid dehydratase (Homo sapiens) (P13716 whole entry, stated change not applied): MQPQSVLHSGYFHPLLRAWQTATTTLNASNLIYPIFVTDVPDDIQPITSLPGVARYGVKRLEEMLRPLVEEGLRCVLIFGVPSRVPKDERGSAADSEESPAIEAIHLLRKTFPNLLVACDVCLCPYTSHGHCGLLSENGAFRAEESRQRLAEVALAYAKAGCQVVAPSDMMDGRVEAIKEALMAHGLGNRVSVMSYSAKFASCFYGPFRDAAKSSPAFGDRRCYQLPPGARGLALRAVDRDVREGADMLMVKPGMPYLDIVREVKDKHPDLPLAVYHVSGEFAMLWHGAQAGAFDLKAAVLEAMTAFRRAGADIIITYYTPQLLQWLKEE
Chain of Protein disulfide-isomerase A4 (Homo sapiens) (P13667 21-645 limits assumed): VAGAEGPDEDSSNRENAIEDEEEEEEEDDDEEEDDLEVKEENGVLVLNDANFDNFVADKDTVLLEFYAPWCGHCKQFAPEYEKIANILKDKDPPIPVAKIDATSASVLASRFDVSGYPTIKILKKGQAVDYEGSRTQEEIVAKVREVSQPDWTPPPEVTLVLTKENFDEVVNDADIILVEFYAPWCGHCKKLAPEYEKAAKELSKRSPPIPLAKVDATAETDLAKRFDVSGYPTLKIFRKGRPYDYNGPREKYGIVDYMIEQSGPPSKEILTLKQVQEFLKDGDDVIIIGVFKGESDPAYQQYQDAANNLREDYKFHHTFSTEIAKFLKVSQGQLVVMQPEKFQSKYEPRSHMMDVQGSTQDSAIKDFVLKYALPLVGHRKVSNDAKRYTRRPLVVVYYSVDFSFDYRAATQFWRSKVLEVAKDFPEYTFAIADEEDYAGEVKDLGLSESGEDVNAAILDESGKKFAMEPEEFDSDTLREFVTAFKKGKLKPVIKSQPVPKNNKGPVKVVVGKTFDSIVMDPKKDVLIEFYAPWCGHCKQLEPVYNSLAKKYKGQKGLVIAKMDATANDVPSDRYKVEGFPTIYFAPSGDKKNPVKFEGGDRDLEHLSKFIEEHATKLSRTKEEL
Chain of Protein disulfide-isomerase (Homo sapiens) (P07237 18-508 limits assumed): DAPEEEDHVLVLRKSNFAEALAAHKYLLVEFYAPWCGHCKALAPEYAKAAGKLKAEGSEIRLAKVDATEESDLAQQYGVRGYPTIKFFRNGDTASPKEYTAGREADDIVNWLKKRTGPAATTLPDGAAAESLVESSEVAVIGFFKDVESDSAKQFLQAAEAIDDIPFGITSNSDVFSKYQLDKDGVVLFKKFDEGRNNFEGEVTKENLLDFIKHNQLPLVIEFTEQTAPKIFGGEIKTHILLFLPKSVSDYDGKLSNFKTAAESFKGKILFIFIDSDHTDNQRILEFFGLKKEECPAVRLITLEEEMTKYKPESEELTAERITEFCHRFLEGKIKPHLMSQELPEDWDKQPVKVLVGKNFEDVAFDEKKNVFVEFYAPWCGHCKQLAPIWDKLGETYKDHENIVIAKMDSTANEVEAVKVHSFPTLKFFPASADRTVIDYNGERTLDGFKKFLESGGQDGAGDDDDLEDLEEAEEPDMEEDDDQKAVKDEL
Chain of Alpha-actinin-4 (Homo sapiens) (O43707 whole entry): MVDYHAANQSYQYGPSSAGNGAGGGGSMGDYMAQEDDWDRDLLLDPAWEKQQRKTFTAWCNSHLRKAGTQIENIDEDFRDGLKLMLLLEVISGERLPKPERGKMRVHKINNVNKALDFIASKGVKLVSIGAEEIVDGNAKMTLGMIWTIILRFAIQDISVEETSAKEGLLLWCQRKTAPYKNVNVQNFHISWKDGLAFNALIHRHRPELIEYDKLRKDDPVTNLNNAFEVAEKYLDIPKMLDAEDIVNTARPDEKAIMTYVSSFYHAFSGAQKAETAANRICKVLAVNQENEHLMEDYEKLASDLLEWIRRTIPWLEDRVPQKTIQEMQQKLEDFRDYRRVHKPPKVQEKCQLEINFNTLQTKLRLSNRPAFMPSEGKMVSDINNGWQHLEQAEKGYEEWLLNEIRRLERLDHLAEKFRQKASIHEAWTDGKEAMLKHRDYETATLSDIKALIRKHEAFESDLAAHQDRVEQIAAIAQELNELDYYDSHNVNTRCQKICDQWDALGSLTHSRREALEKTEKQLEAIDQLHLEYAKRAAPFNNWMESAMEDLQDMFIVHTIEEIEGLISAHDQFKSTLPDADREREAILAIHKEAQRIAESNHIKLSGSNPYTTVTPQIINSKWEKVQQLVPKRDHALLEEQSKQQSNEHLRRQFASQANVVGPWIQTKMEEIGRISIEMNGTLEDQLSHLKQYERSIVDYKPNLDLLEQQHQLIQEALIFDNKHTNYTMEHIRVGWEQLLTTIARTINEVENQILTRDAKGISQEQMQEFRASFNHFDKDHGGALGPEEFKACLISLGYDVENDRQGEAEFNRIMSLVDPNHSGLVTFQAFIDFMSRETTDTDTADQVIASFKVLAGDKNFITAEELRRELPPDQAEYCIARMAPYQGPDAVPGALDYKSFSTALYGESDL
Chain of Protein disulfide-isomerase A3 (Homo sapiens) (P30101 25-505 limits assumed): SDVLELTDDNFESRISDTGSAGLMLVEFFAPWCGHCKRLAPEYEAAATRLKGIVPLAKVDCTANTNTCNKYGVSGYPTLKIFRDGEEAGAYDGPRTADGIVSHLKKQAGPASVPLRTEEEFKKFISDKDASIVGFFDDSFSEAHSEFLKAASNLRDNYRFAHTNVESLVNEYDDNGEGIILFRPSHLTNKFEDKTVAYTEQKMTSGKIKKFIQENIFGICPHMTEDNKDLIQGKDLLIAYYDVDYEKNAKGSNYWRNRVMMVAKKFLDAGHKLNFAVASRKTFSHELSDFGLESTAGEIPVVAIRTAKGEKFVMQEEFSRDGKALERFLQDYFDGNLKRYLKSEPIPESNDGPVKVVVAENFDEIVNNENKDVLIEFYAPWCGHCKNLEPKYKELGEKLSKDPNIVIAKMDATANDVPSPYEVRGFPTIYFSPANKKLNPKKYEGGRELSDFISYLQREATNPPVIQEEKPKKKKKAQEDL
Chain of Endoplasmin (Homo sapiens) (P14625 22-803 limits assumed): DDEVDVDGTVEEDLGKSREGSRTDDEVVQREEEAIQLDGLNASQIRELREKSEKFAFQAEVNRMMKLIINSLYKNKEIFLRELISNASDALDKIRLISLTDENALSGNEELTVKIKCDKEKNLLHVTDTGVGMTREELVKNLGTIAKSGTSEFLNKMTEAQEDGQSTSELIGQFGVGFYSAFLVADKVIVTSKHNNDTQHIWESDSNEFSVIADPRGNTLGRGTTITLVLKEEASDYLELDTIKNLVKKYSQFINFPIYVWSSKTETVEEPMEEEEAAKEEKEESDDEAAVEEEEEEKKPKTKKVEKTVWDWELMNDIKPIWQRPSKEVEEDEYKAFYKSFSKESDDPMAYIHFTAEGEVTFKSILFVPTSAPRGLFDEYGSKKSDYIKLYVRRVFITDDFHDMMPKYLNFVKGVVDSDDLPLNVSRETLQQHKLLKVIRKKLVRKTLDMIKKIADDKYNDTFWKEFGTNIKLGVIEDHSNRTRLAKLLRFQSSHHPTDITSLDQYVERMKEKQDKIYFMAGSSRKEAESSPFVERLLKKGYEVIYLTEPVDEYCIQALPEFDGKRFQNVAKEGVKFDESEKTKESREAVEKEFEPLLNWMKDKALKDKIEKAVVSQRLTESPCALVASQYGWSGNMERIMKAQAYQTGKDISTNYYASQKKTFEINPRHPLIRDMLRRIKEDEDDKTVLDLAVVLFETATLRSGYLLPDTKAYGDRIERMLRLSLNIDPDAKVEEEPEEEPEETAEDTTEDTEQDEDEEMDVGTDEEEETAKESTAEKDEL
Chain of Alcohol dehydrogenase 1A (Homo sapiens) (P07327 2-375 limits assumed): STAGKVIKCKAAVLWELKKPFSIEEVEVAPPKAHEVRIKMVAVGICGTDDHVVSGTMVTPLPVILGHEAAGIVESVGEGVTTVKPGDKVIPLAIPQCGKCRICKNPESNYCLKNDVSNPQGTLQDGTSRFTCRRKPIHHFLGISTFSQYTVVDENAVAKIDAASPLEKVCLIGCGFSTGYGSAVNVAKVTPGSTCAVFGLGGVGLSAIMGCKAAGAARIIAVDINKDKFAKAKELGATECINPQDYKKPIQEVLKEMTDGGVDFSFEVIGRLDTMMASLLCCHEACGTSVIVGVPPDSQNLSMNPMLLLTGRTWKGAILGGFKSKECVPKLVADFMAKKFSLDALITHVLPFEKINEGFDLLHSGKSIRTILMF
Chain of Hepatoma-derived growth factor (Homo sapiens) (P51858 whole entry): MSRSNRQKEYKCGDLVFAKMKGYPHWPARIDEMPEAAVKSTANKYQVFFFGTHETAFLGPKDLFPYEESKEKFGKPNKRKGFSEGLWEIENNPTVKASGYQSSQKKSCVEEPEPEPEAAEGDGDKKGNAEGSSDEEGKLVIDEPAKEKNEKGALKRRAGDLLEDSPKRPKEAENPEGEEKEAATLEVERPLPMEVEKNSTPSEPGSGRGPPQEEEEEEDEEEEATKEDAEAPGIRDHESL
Chain of Cytochrome b-c1 complex subunit 6, mitochondrial (Homo sapiens) (P07919 14-91 limits assumed, one chain of several): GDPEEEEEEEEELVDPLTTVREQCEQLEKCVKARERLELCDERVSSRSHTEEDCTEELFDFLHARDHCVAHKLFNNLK
Chain of Parathymosin (Homo sapiens) (P20962 2-102 limits assumed): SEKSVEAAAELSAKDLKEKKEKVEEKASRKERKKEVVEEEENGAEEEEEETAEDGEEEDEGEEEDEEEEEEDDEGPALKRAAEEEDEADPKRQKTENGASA
Chain of Tropomyosin alpha-4 chain (Homo sapiens) (P67936 2-248 limits assumed): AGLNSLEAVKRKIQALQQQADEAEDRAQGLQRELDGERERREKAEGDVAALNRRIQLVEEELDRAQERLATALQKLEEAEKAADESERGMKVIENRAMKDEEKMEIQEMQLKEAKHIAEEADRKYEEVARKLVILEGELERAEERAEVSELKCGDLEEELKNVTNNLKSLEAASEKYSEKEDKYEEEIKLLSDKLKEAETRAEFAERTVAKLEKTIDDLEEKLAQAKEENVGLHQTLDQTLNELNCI
Chain of Membrane-associated progesterone receptor component 1 (Homo sapiens) (O00264 whole entry): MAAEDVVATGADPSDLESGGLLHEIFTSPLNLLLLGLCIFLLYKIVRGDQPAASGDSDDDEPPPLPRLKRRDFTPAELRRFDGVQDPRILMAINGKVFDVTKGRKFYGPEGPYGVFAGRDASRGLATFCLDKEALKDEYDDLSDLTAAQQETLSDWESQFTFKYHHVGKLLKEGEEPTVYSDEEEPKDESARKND

**Q.** How did the % Coverage of the unique peptides observed [1] turn out when sPIF-1(15) (peptide) was run?
**A.** The % Coverage of the unique peptides observed was 34%.

**Q.** And the % Coverage of the unique peptides observed [2]?
**A.** Its % Coverage of the unique peptides observed is 48%.

**Q.** What about the % Coverage of the unique peptides observed [3] of the same substance?
**A.** Its % Coverage of the unique peptides observed is 45%.

**Q.** And the % Coverage of the unique peptides observed [4]?
**A.** Its % Coverage of the unique peptides observed is 45%.

**Q.** And the % Coverage of the unique peptides observed [5]?
**A.** The % Coverage of the unique peptides observed was 49%.

**Q.** And the % Coverage of the unique peptides observed [6]?
**A.** Its % Coverage of the unique peptides observed is 53%.

**Q.** And the % Coverage of the unique peptides observed [7]?
**A.** Its % Coverage of the unique peptides observed is 44%.

**Q.** And the % Coverage of the unique peptides observed [8]?
**A.** Its % Coverage of the unique peptides observed is 76%.

**Q.** What about the % Coverage of the unique peptides observed [9] of the same substance?
**A.** The % Coverage of the unique peptides observed was 52%.

**Q.** And the % Coverage of the unique peptides observed [10]?
**A.** Its % Coverage of the unique peptides observed is 48%.

**Q.** What about the % Coverage of the unique peptides observed [11] of the same substance?
**A.** Its % Coverage of the unique peptides observed is 53%.

**Q.** And the % Coverage of the unique peptides observed [12]?
**A.** The % Coverage of the unique peptides observed was 56%.

**Q.** And the % Coverage of the unique peptides observed [13]?
**A.** Its % Coverage of the unique peptides observed is 64%.

**Q.** And the % Coverage of the unique peptides observed [14]?
**A.** Its % Coverage of the unique peptides observed is 58%.

**Q.** And the % Coverage of the unique peptides observed (Vimentin (Homo sapiens))?
**A.** The % Coverage of the unique peptides observed was 50%.

**Q.** What about the % Coverage of the unique peptides observed [15] of the same substance?
**A.** Its % Coverage of the unique peptides observed is 47%.

**Q.** And the % Coverage of the unique peptides observed [16]?
**A.** Its % Coverage of the unique peptides observed is 49%.

**Q.** What about the % Coverage of the unique peptides observed [17] of the same substance?
**A.** The % Coverage of the unique peptides observed was 48%.

**Q.** What about the % Coverage of the unique peptides observed [18] of the same substance?
**A.** The % Coverage of the unique peptides observed was 47%.

**Q.** What about the % Coverage of the unique peptides observed [19] of the same substance?
**A.** Its % Coverage of the unique peptides observed is 53%.

**Q.** What about the % Coverage of the unique peptides observed [20] of the same substance?
**A.** Its % Coverage of the unique peptides observed is 57%.

**Q.** What about the % Coverage of the unique peptides observed [21] of the same substance?
**A.** The % Coverage of the unique peptides observed was 63%.

**Q.** And the % Coverage of the unique peptides observed [22]?
**A.** Its % Coverage of the unique peptides observed is 45%.

**Q.** What about the % Coverage of the unique peptides observed [23] of the same substance?
**A.** Its % Coverage of the unique peptides observed is 76%.

**Q.** And the % Coverage of the unique peptides observed [24]?
**A.** Its % Coverage of the unique peptides observed is 52%.

**Q.** And the % Coverage of the unique peptides observed [25]?
**A.** The % Coverage of the unique peptides observed was 47%.

**Q.** What about the % Coverage of the unique peptides observed [26] of the same substance?
**A.** Its % Coverage of the unique peptides observed is 45%.

**Q.** What about the % Coverage of the unique peptides observed [27] of the same substance?
**A.** Its % Coverage of the unique peptides observed is 46%.

**Q.** And the % Coverage of the unique peptides observed [28]?
**A.** Its % Coverage of the unique peptides observed is 52%.

**Q.** What about the % Coverage of the unique peptides observed [29] of the same substance?
**A.** Its % Coverage of the unique peptides observed is 47%.

**Q.** And the % Coverage of the unique peptides observed [30]?
**A.** Its % Coverage of the unique peptides observed is 46%.

**Q.** And the % Coverage of the unique peptides observed [31]?
**A.** The % Coverage of the unique peptides observed was 53%.

**Q.** And the % Coverage of the unique peptides observed [32]?
**A.** The % Coverage of the unique peptides observed was 78%.

**Q.** And the % Coverage of the unique peptides observed [33]?
**A.** Its % Coverage of the unique peptides observed is 48%.

**Q.** What about the % Coverage of the unique peptides observed [34] of the same substance?
**A.** The % Coverage of the unique peptides observed was 60%.

**Q.** And the % Coverage of the unique peptides observed [35]?
**A.** Its % Coverage of the unique peptides observed is 55%.

**Q.** And the % Coverage of the unique peptides observed [36]?
**A.** Its % Coverage of the unique peptides observed is 45%.

Source: patent US20230190867A1, “METHODS OF TREATING NASH AND COMPOSITIONS THEREFORE” (BIOINCEPT, LLC, priority 2018, published 2023)
